{
  "source": "paper PMC6155051",
  "about": "“Structures of insect Imp-L2 suggest an alternative strategy for regulating the bioavailability of insulin-like hormones” (Nature Communications, 2018)",
  "molecules": {"B1": {"name": "Drosophila imaginal morphogenesis protein-late 2 protein (Imp-L2) (natural protein, Drosophila melanogaster, UniProt Q09024 26-267, looked up)", "chain": "RAVDLVDDSNDVDNSIEAEEEKPRNRAFEADWLKFTKTPPTKLQQADGATIEIVCEMMGSQVPSIQWVVGHLPRSELDDLDSNQVAEEAPSAIVRVRSSHIIDHVLSEARTYTCVGRTGSKTIYASTVVHPPRSSRLTPEKTYPGAQKPRIIYTEKTHLDLMGSNIQLPCRVHARPRAEITWLNNENKEIVQGHRHRVLANGDLLISEIKWEDMGNYKCIARNVVGKDTADTFVYPVLNEED", "notes": "signal peptide in the construct: full-length Drosophila Imp-L2 with the native signal peptide, secreted into the medium; After 3C cleavage, residues of the protease site should remain at the C-terminus (surmised); A selenomethionine-labelled form was also made; the apo structure was solved by MAD; also called Dm Imp-L2; apo-Imp-L2; source: baculovirus-infected Sf9 cells, purified from conditioned …"}, "B2": {"name": "Drosophila insulin-like peptide 5, C4 variant (B2-B29) (ligand)", "chain 1": "NSLRACGPALMDMLRVACPNGFNSMFAK", "chain 2": "DFRGVVDSCCRNSCSFSTLRAYCDS"}},
  "key": {"[1]": {"target": "Drosophila imaginal morphogenesis protein-late 2 protein (Imp-L2) (Drosophila melanogaster) (UniProt Q09024)", "test": "ITC; Imp-L2 (12.8-22.6 uM) in the cell, hormone about tenfold greater injected; 50 mM Tris, 150 mM NaCl, pH 7.4; 25 C; hormone concentrations adjusted to a 1:1 stoichiometry"}, "[2]": {"target": "the molecule itself", "test": "SEC-MALS; ligand-free Imp-L2, 1 mg/mL, 50 mM Tris pH 7.4, 50 mM NaCl; Superdex S200 10/300"}, "[3]": {"target": "T1, Drosophila imaginal morphogenesis protein-late 2 protein (Imp-L2) (Drosophila melanogaster, UniProt Q09024 26-267)", "T1 chain": "B1 chain", "test": "ITC; 300 mM NaCl (legend says 400 mM)"}, "[4]": {"target": "Drosophila imaginal morphogenesis protein-late 2 protein (Imp-L2) (Drosophila melanogaster) (UniProt Q09024)", "test": "ITC; DILP5:Imp-L2 binding as a function of salt: 300 mM NaCl"}, "[5]": {"target": "Drosophila imaginal morphogenesis protein-late 2 protein (Imp-L2) (Drosophila melanogaster) (UniProt Q09024)", "test": "ITC; DILP5:Imp-L2 binding as a function of salt: 300 mM NaCl", "remark": "listed apart in the source"}},
  "data": [
    {"molecule": "Insulin X14 (ProB28Asp), fully monomeric mutant of human insulin (ligand)", "values": [
      {"measurement": "Kd", "setting": "[1]", "result": 135, "unit": "nM"}
    ]},
    {"molecule": "B1", "values": [
      {"measurement": "stoichiometry N", "setting": "[2]", "result": 2}
    ]},
    {"molecule": "B2", "values": [
      {"measurement": "Kd", "setting": "[3]", "result": 5.4, "unit": "pM"},
      {"measurement": "Kd", "setting": "[1]", "result": 8, "unit": "nM"},
      {"measurement": "Kd", "setting": "[4]", "result": 5, "unit": "pM"},
      {"measurement": "Kd", "setting": "[5]", "result": 1, "unit": "pM"}
    ]}
  ]
}
